# Laboratory results reported in the supplement of paper PMC10567573.
# B1: RIPK4 (parent)
# chain: RERMELLEEAKKMEMAKFRYILPV
# Variants of: B1
# Assay: protein stability index of a GFP-peptide fusion (GPS, HEK-293T) (PSI 1-6); higher = more stable
# Conditions: c terminus: a fixed tail appended
# 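Also: lentivirally expressed fusions sorted by FACS into six bins by GFP to DsRed ratio, PSI derived from sequencing read proportions per bin multiplied by bin number.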
row,Variant,protein stability index
1,RERMELLEEAKKMEMAKFRYIIPV [L22I],5.51
2,RERMELLEEAKKMEMAKFRYIAPV [L22A],4.27
3,RERMELLEEAKKMEMAKFRYIMPV [L22M],3.57
4,RERMELLEEAKKMEMAKFRYINPV [L22N],3.07
5,RERMELLEEAKKMEMAKFRYIRPV [L22R],4.07
6,RERMELLEEAKKMEMAKFRYISPV [L22S],3.28
7,RERMELLEEAKKMEMAKFRYIQPV [L22Q],3.69
8,RERMELLEEAKKMEMAKFRYIWPV [L22W],2.53
9,RERMELLEEAKKMEMAKFRYIPPV [L22P],4.95
10,RERMELLEEAKKMEMAKFRYIKPV [L22K],4.1
11,RERMELLEEAKKMEMAKIRYILPV [F18I],2.79
12,RERMELLEEAKKMEMAKARYILPV [F18A],3.16
13,RERMELLEEAKKMEMAKGRYILPV [F18G],3.69
14,RERMELLEEAKKMEMAKMRYILPV [F18M],2.75
15,RERMELLEEAKKMEMAKTRYILPV [F18T],3.81
16,RERMELLEEAKKMEMAKPRYILPV [F18P],3.86
17,RERMELLEEAKKMEMAKQRYILPV [F18Q],3.61
18,RERMELLEEAKKMEMAKERYILPV [F18E],3.55
19,RERMELLEEAKKMEMAKNRYILPV [F18N],4.03
20,RERMELLEEAKKMEMAKKRYILPV [F18K],4.06
21,RERMELLEEAKKMEMAKCRYILPV [F18C],2.75
22,RERMELLEEAKKMEMAKFDYILPV [R19D],3.47
23,RERMELLEEAKKMEMAKFCYILPV [R19C],2.51
24,RERMELLEEAKKMEMAKFEYILPV [R19E],3.28

row,Variant,protein stability index
1,RERMELLEEAKKMEMAKFLYILPV [R19L],2.14
2,RERMELLEEAKKMEMAKFYYILPV [R19Y],2.38
3,RERMELLEEAKKMEMAKFHYILPV [R19H],2.6
4,RERMELLEEAKKMEMAKFFYILPV [R19F],1.15
5,RERMELLEEAKKMEMAKFQYILPV [R19Q],3.65
6,RERMELLEEAKKMEMAKFAYILPV [R19A],1.96
7,RERMELLEEAKKMEMAKFNYILPV [R19N],2.94
8,RERMELLEEAKKMEMAKFSYILPV [R19S],2.86
9,RERMELLEEAKKMEMAKFPYILPV [R19P],2.13
10,RERMELLEEAKKMEMAKFKYILPV [R19K],3.04
11,RERMELLEEAKKMEMAKFMYILPV [R19M],1.97
12,RERMELLEEAKKMEMAKFIYILPV [R19I],1.27
13,RERMELLEEAKKMEMAKFTYILPV [R19T],2.67
14,RERMELLEEAKKMEMAKFGYILPV [R19G],3.03
15,RERMELLEEAKKMEMAHFRYILPV [K17H],2.68
16,RERMELLEEAKKMEMAVFRYILPV [K17V],2.75
17,RERMELLEEAKKMEMANFRYILPV [K17N],1.01
18,RERMELLEEAKKMEMAIFRYILPV [K17I],2.72
19,RERMELLEEAKKMEMAFFRYILPV [K17F],1.26
20,RERMELLEEAKKMEMACFRYILPV [K17C],2.01
21,RERMELLEEAKKMEMAGFRYILPV [K17G],2.94
22,RERMELLEEAKKMEMAAFRYILPV [K17A],1.87
23,RERMELLEEAKKMEMADFRYILPV [K17D],2.84
24,RERMELLEEAKKMEMATFRYILPV [K17T],3.1

row,Variant,protein stability index
1,RERMELLEEAKKMEMAPFRYILPV [K17P],1.86
2,RERMELLEEAKKMEMAQFRYILPV [K17Q],3.5
3,RERMELLEEAKKMEMAMFRYILPV [K17M],3.5
4,RERMELLEEAKKMEMASFRYILPV [K17S],2.99
5,RERMELLEEAKKMEMALFRYILPV [K17L],2.04
6,RERMELLEEAKKMEMAYFRYILPV [K17Y],2.8
7,RERMELLEEAKKMEMAWFRYILPV [K17W],2.29
8,RERMELLEEAKKMEMAKFRVILPV [Y20V],2.59
9,RERMELLEEAKKMEMAKFRDILPV [Y20D],2.55
10,RERMELLEEAKKMEMAKFRCILPV [Y20C],2.67
11,RERMELLEEAKKMEMAKFRSILPV [Y20S],3.91
12,RERMELLEEAKKMEMAKFRMILPV [Y20M],2.18
13,RERMELLEEAKKMEMAKFREILPV [Y20E],4.16
14,RERMELLEEAKKMEMAKFRNILPV [Y20N],3.05
15,RERMELLEEAKKMEMAKFRQILPV [Y20Q],2.34
16,RERMELLEEAKKMEMAKFRPILPV [Y20P],3.57
17,RERMELLEEAKKMEMAKFRWILPV [Y20W],2.24
18,RERMELLEEAKKMEMAKFRIILPV [Y20I],1.93
19,RERMELLEEAKKMEMAKFRLILPV [Y20L],2.03
20,RERMELLEEAKKMEMAKFRHILPV [Y20H],2.83
21,RERMELLEEAKKMEMAKFRGILPV [Y20G],3.74
22,RERMELLEEAKKMEMAKFRFILPV [Y20F],2.27
23,RERMELLEEAKKMEMAKFRTILPV [Y20T],3.4
24,RERMELLEEAKKMEMAKFRAILPV [Y20A],3.73

row,Variant,protein stability index
1,RERMELLEEAKKMEMAKFRYKLPV [I21K],3.45
2,RERMELLEEAKKMEMAKFRYRLPV [I21R],3.2
3,RERMELLEEAKKMEMAKFRYWLPV [I21W],2.05
4,RERMELLEEAKKMEMAKFRYNLPV [I21N],3.85
5,RERMELLEEAKKMEMAKFRYHLPV [I21H],2.94
6,RERMELLEEAKKMEMAKFRYYLPV [I21Y],2.18
7,RERMELLEEAKKMEMAKFRYFLPV [I21F],4.25
8,RERMELLEEAKKMEMAKFRYELPV [I21E],4.11
9,RERMELLEEAKKMEMAKFRYGLPV [I21G],3.68
10,RERMELLEEAKKMEMAKFRYLLPV [I21L],3.42
11,RERMELLEEAKKMEMWKFRYILPV [A16W],2.58
12,RERMELLEEAKKMEMPKFRYILPV [A16P],3.49
13,RERMELLEEAKKMEMNKFRYILPV [A16N],4.29
14,RERMELLEEAKKMEMVKFRYILPV [A16V],3.03
15,RERMELLEEAKKMEMQKFRYILPV [A16Q],3.62
16,RERMELLEEAKKMEMTKFRYILPV [A16T],2.85
17,RERMELLEEAKKMEMYKFRYILPV [A16Y],3.32
18,RERMELLEEAKKMEMKKFRYILPV [A16K],3.8
19,RERMELLEEAKKMEMAKFRYILEV [P23E],2.7
20,RERMELLEEAKKMEMAKFRYILCV [P23C],3.02
21,RERMELLEEAKKMEMAKFRYILGV [P23G],1.95
22,RERMELLEEAKKMEMAKFRYILDV [P23D],2.03
